Article PMC3724679, “Biochemical Characterization of a Polysialyltransferase from Mannheimia haemolytica A2 and Comparison to Other Bacterial Polysialyltransferases” (PLoS ONE, 2013)

Tested on: CC(=O)N[C@H]1[C@H]([C@H](O)[C@H](O)CO)O[C@](OP(=O)(O)OC[C@H]2O[C@@H](n3ccc(N)nc3=O)[C@H](O)[C@@H]2O)(C(=O)O)C[C@@H]1O
Test: purified protein
Settings: 0.5 mM GD3-FCHASE acceptor, 50 mM HEPES pH 7.5, 10 mM MgCl2, 30°C, CMP-Neu5Ac varied 0.25-20 mM

PSTMh (MalE-Δ20PSTMh) (Mannheimia haemolytica)
Km: 1100 ± 50 µM | Vmax: 1520 µmol/min/mg
